Consider five molecules from doi:10.1101/2020.07.27.223255, “Bro1 stimulates Vps4 activity to promote Intralumenal Vesicle Formation during Multivesicular Body biogenesis” (bioRxiv, 2020).

Residue numbers refer to the chain shown, from its start. Numbers in names are those of the source.

For experiment [1], the target named is T1, His6-Vps4 (S. cerevisiae, UniProt P52917 1-437).
T1 sequence (looked up): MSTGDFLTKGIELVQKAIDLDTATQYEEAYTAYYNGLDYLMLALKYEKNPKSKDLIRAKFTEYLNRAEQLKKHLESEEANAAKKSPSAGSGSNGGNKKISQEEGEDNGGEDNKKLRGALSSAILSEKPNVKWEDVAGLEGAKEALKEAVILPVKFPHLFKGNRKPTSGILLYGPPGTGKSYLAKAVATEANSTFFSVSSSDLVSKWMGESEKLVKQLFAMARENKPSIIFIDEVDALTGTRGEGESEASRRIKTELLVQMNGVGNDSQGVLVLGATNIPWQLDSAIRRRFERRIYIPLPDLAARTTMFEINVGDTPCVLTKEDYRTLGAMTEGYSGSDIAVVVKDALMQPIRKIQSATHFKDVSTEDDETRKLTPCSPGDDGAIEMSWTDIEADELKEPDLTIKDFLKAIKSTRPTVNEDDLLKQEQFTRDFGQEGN
The experiment can be described thus: cell-based or functional assay.

Experiment [2] has as its target T1, His6-Vps4. The experiment can be described thus: pull-down; His6-Vps4 (10 μg) or His6-MIT on Ni-NTA agarose; 6 μg Bro1V or mutants in ATPase buffer + 0.02% Tween20, 1 hour at 30°C; four washes NiA buffer with 10 mM imidazole; eluted with 200 mM imidazole; protein stain and anti-Bro1 immunoblot. Particulars: both partners purified.

B1: Bro1 V domain (Bro1V, aa 370-709), GST tag removed (domain or fragment, S. cerevisiae, UniProt P48582 370-709, looked up)
chain: DVYEKESIYSEEKATLLRKQVEETETANLEYSSFIEFTNLPRLLSDLEKQFSDGNIFSNTDTQGQLMRDQIQTWCKFIQTNEFRDIEEQMNKIVFKRKQILEILSALPNDQKENVTKLKSSLVAASNSDEKLFACVKPHIVEINLLNDNGKIWKKFDEFNRNTPPQPSLLDIDDTKNDKILELLKQVKGHAEDLRTLKEERSRNLSELRDEINNDDITKLLIINKGKSDVELKDLFEVELEKFEPLSTRIEATIYKQSSMIDDIKAKLDEIFHLSNFKDKSSGEEKFLEDRKNFFDKLQEAVKSFSIFASDLPKGIEFYDSLFNMSRDLAERVRVAKQTE
Take B1: the “Vps4 (0.5μM) ATPase activity with titration of Bro1V (10nM-8μM): maximal stimulation over basal activity (Vps4 of the ATPase assay came from GST-Vps4)” value in experiment [1] stood at 2.6 fold.

B2: Bro1V^M9 (T587D), GST tag removed (domain or fragment, S. cerevisiae, UniProt P48582 370-709, looked up)
chain: B1 chain with T218D
notes: Bro1 V domain, S. cerevisiae, aa 370-709, mutant M9; source: E. coli BL21-DE3, purified (Glutathione Sepharose 4B, AcTEV protease to remove GST, Superdex200 size exclusion)
Consider B2, for which the binding result in experiment [2] was “binds”.

B3: Bro1V^M10 (K481D), GST tag removed (domain or fragment, S. cerevisiae, UniProt P48582 370-709, looked up)
chain: B1 chain with K112D
notes: Bro1 V domain, S. cerevisiae, aa 370-709, mutant M10; source: E. coli BL21-DE3, purified (Glutathione Sepharose 4B, AcTEV protease to remove GST, Superdex200 size exclusion)
On to B3, for which the binding result in experiment [2] is reported as “binds”.

B4: Bro1V^M8 (E686A, L691D), GST tag removed (domain or fragment, S. cerevisiae, UniProt P48582 370-709, looked up)
chain: B1 chain with E317A, L322D
notes: Bro1 V domain, S. cerevisiae, aa 370-709, mutant M8; source: E. coli BL21-DE3, purified (Glutathione Sepharose 4B, AcTEV protease to remove GST, Superdex200 size exclusion)
Take B4: the binding result in experiment [2] is “binds”.

B5: Bro1V^M4 (V505A, H508A, I512A), GST tag removed (domain or fragment, S. cerevisiae, UniProt P48582 370-709, looked up)
chain: B1 chain with V136A, H139A, I143A
notes: Bro1 V domain, S. cerevisiae, aa 370-709, mutant M4; source: E. coli BL21-DE3, purified (Glutathione Sepharose 4B, AcTEV protease to remove GST, Superdex200 size exclusion)
On to B5, for which the binding result in experiment [2] is recorded as “binds”.
